Results: IntAct's records for PubMed 9537418

B1: Merlin (Homo sapiens), P35240-3 (parent)
chain: MAGAIASRMSFSSLKRKQPKTFTVRIVTMDAEMEFNCEMKWKGKDLFDLVCRTLGLRETWFFGLQYTIKDTVAWLKMDKKVLDHDVSKEEPVTFHFLAKFYPENAEEELVQEITQHLFFLQVKKQILDEKIYCPPEASVLLASYAVQAKYGDYDPSVHKRGFLAQEELLPKRVINLYQMTPEMWEERITAWYAEHRGRARDEAEMEYLKIAQDLEMYGVNYFAIRNKKGTELLLGVDALGLHIYDPENRLTPKISFPWNEIRNISYSDKEFTIKPLDKKIDVFKFNSSKLRVNKLILQLCIGNHDLFMRRRKADSLEVQQMKAQAREEKARKQMERQRLAREKQMREEAERTRDELERRLLQMKEEATMANEALMRSEETADLLAEKAQITEEEAKLLAQKAAEAEQEMQRIKATAIRTEEEKRLMEQKVLEAEVLALKMAEESERRAKEADQLKQDLQEAREAERRAKQKLLEIATKPTYPPMNPIPAPLPPDIPSFNLIGDSLSFDFKDTDMKRLSMEIEKEKVEYMEKSKHLQEQLNELKTEIEALKLKERETALDILHNENSDRGGSSKHNTIKKPQAQGRRPICI

Variants of: B1
Details: with sptb2_human SPTBN1, Q01082
Chain of sptb2_human SPTBN1, Q01082 (Q01082 whole entry): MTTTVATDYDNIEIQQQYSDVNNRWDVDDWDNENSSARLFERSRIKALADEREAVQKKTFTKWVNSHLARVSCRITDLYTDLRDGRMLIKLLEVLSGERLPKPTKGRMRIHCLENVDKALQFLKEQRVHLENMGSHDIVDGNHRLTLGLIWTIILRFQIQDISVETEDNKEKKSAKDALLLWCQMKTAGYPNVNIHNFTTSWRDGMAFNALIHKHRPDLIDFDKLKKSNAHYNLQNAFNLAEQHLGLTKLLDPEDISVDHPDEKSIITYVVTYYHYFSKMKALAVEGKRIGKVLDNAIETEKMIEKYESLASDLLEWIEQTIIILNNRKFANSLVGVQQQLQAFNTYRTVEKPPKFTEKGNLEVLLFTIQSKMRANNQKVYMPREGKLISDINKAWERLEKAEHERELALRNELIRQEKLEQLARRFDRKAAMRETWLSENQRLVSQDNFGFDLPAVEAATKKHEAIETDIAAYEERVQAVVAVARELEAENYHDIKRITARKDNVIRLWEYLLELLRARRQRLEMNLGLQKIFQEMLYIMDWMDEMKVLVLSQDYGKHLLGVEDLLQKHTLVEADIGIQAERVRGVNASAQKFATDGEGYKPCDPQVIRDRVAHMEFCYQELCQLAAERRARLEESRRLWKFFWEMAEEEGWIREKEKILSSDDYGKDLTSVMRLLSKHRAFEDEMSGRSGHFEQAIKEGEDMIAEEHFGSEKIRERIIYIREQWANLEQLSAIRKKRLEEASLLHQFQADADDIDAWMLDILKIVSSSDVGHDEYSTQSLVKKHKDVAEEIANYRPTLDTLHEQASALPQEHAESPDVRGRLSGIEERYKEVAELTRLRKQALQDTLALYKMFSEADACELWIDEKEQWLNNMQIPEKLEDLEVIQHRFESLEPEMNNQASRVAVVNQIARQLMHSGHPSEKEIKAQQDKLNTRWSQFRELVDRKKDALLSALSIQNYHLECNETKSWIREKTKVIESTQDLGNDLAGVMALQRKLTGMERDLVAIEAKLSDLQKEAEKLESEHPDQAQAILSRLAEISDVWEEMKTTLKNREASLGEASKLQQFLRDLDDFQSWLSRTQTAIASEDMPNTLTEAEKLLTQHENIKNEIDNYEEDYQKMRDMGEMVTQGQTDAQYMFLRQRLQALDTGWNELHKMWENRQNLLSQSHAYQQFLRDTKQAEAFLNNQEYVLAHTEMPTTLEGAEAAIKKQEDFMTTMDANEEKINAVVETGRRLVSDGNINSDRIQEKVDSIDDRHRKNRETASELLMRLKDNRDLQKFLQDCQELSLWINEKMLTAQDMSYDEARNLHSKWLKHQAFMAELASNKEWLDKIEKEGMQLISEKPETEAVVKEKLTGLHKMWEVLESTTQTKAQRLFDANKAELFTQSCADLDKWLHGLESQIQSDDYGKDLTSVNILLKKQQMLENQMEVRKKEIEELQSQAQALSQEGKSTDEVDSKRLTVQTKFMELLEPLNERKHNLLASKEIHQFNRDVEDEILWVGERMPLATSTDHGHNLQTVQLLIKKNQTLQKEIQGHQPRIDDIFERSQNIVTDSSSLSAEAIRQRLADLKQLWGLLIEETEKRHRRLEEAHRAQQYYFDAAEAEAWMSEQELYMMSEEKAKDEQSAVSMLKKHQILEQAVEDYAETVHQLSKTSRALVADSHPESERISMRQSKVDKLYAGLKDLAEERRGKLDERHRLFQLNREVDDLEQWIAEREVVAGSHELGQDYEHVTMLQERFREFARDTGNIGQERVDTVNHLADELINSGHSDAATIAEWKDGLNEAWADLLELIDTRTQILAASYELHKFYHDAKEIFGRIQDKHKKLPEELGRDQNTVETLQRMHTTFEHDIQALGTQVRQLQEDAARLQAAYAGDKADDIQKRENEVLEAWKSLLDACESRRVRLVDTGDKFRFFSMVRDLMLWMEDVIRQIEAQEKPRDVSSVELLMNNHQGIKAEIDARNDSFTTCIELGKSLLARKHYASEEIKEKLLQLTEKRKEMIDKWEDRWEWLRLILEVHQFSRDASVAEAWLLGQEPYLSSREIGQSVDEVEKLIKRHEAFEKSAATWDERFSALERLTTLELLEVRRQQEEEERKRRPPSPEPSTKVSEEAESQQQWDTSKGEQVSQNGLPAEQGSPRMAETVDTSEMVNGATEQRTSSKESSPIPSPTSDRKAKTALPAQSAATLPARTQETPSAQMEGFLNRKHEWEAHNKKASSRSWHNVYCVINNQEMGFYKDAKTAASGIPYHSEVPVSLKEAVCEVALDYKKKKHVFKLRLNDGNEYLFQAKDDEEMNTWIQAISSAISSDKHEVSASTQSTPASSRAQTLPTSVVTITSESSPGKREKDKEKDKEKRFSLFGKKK

Row | Variant | effect of a mutation on the interaction
1 | Q538P | disrupting interaction strength
2 | L535P | decreasing interaction strength
3 | L360P | decreasing interaction strength
